Data set [1] concerns vaginal distension (VD) animal model of stress urinary incontinence (SUI). Put plainly: Leak point pressure (LPP) in rat vaginal distension model for stress urinary incontinence. It is filed as in vivo. The note with it: for area under curve (AUC) of urinary bladder leak point pressure: Day 0-14 after VD; for time course of leak point pressure (LPP): Day 4, 9 and 14 after VD; for leak point pressure (LPP) of urinary bladder: Cpd.1B single urethral injection Day 0, Duloxetine 20 mg/kg oral daily. The source says:
The urethra is a conduit for elimination of urine from the bladder. It is composed of an epithelium lining the lumen, lamina propria with a prominent vascular plexus, smooth muscle and an outer layer of striated muscle (called external urethral sphincter). The urethra functions in coordination with the bladder: it remains closed during bladder filling to maintain continence and it relaxes during voiding to allow flow of urine. These processes are controlled by parasympathetic, sympathetic and somatic innervation. Parasympathetic nerves release nitric oxide to relax the urethra during bladder voiding, while sympathetic nerves release noradrenaline to contract the urethra during bladder filling. The striated muscle receives somatic innervation that contracts the muscle ensuring continence during bladder filling. Using the model of stress urinary incontinence (SUI) in female rats the hypothesis was tested if Cpd.1B can be effective against SUI in the vaginal distension (VD) model by facilitating muscle growth and regeneration. […] Vaginal Distension (VD) was applied for 4 hours to female Sprague-Dawley Female rats under isoflurane anesthesia. 1 hour after the end of VD, the abdomen was surgically opened to access the urethra and rats received two injections of vehicle or Cpd.1B (10 μg each) through a Hamilton syringe at approximately 5 and 7 o'clock positions. Sham treated animals (catheter without inflation) were treated with vehicle as controls. […] Rats were then put in a supine position on a heated pad at 37° C. The bladder was emptied manually and filled with room temperature saline through the bladder catheter at 3.0 ml/h. After bladder filling with 0.4-0.5 ml, the abdomen was slowly depressed manually to increase abdominal pressure until fluid leakage was observed from the urethral orifice.

For data set [2] the test system is unchanged. Put plainly: Histological assessment of urethral integrity after vaginal distension (Masson trichrome scores). In kind it is in vivo, rat. To be noted: mid-urethra cross-sections, Day 9 and 14 after VD. How it is done: Vaginal Distension (VD) was applied for 4 hours to female Sprague-Dawley Female rats under isoflurane anesthesia. 1 hour after the end of VD, the abdomen was surgically opened to access the urethra and rats received two injections of vehicle or Cpd.1B (10 μg each) through a Hamilton syringe at approximately 5 and 7 o'clock positions. Sham treated animals (catheter without inflation) were treated with vehicle as controls. […] From 2 animals of each group, the urethra-vaginal tissues were harvested (cross-section of the mid-urethra and anterior vagina) on Day 9 and 14, and the tissues immersed in neutral buffered formalin containing 4% formaldehyde for a period of 4 h, then embedded in paraffin. Sections of 5 μm were stained with the standard procedures of Hemalun-Eosin (HE), Masson Trichrome (MT) and Picrosirius red. Based on morphology and tissue integrity, histology scores were allocated to the outer circular muscle layer (OCML), the inner longitudinal muscle layer (ILML) and the endomysial tissue of mid-urethral sections, and Day 9 and 14 sampled. The following histological scores were applied to the different layers and averaged per group: • Outer Circular Muscle Layer (OCML, skeletal muscle): • 0=circumferential regular • 1=circumferential focally thinned • 2=discontinued • 3=mostly absent • Inner Longitudinal Muscle Layer (ILML, smooth muscle): • 0=mid-sized to large fascicles • 1=small fascicles) • Endomysial tissue: • 0=thin, dense • 1=thickening by loose connective tissue • 2=focal replacement of muscles by connective tissue • 3=replacement of muscles by connective tissue

In another data set the test system is IGF1 protein. Put plainly: IGF1 protein expression in rat TA muscle after i.m. injection of Cpd.1A (human-specific IGF1 ELISA). It is filed as in vivo. The note with it: 3 and 10 μg doses i.m., after a delay of several hours. On the procedure: (§1) For assessment of Cpd.1A exposure in rat tibialis anterior (TA) muscle, two injections of each 15 μl Cpd.1A at different doses (1, 3 or 10 μg per injection) into TA muscles of male or female rats were performed in adult rats. After 6, 24, 48 and 72 hours, TA muscles were harvested, divided into two parts to analyse RNA and protein content, and Cpd.1A RNA content was analysed by qPCR and IGF1 protein levels by human-specific IGF1 ELISA (Cat. #E20, Mediagnost, Reutlingen, Germany). Total RNA was extracted from flash frozen TA muscle tissues (ca. 10 mg) using Norgen's Animal Tissue RNA Purification Kit (Cat. #25700). A TaqMan assay was developed and validated to quantify Cpd.1A and Cpd.1B RNA from muscle tissues through absolute quantification. Both forward primer (5′ […] 3′; SEQ ID NO: 14) and reverse primer (5′ […] 3′; SEQ ID NO: 15) along with labelled probe with quencher (5′ FAM-CTGCTGCCGTAGCCTG-MGB-Q500 3′; SEQ ID NO: 16) were designed to be specifically bind to Cpd.1A and Cpd.1B RNA and ordered (www.microsynth.com). […] The Cpd.1A RNA copy numbers in TA muscles were assessed by calculating unknown values from standard curves. From qPCR data, half-life was calculated using a monoexponential decay function. […] After 24 and 72 hours, tissues were harvested, and Cpd.1B content was analysed by qPCR as specified above where standard curve template generated from Cpd.1B mRNA.
(In an ELISA, binding on a coated surface is turned into a signal by an enzyme label.)

The conditions of data set [3]: rat, in vivo. On the procedure: as §1

Entries after “also recorded” stand apart in the source; their conditions may differ.

Consider `CNCC[C@H](Oc1cccc2ccccc12)c1cccs1` [Duloxetine, reference compound], for which, in data set [1], the “area under curve (AUC) of urinary bladder leak point pressure” value was “clear increase in AUC; also recorded: beneficial efficacy” and the “time course of leak point pressure (LPP)” value is on record as “initial increase in LPP that declined thereafter to normal levels on Day 14”. Besides, in data set [1] (Day 4 after VD, vs. VD vehicle), the “leak point pressure (LPP) of urinary bladder” value was “initial increase of LPP; also recorded: significant increase of LPP; also recorded: increased LPP”. For the same molecule, the “leak point pressure (LPP) of urinary bladder” value in data set [1] (Day 14 after VD) is “control levels”. In data set [2], the “endomysial tissue histology score” value is on record as “further worsened this pathology”, the “inner longitudinal muscle layer (ILML) histology score” value is “further increased the ILML score” and the “outer circular muscle layer (OCML) histology score” value is reported as “further deteriorated the OCML pathology”. In data set [2] (listed as duloxetine), the “endomysial tissue histology score” value is “worsens the endomysium score”, the “inner longitudinal muscle layer (ILML) histology score” value is “worsens the ILML score” and the “outer circular muscle layer (OCML) histology score” value was “tends to worsen the OCML disorganization”.

B1: Cpd.1A: mRNA encoding human BDNF signal peptide, IGF1 pro-domain and mature human IGF1 (SEQ ID NO: 8), from pMA-T vector, N1-methylpseudouridine modified (nucleic acid)
DNA: AUGACCAUCCUGUUUCUGACAAUGGUCAUCAGCUACUUCGGCUGCAUGAAGGCCGUGAAGAUGCACACCAUGAGCAGCAGCCACCUGUUCUAUCUGGCCCUGUGCCUGCUGACCUUUACCAGCUCUGCUACCGCCGGACCUGAGACACUUUGUGGCGCUGAACUGGUGGACGCCCUGCAGUUUGUGUGUGGCGACAGAGGCUUCUACUUCAACAAGCCCACAGGCUACGGCAGCAGCUCUAGAAGGGCUCCUCAGACCGGAAUCGUGGACGAGUGCUGCUUCAGAAGCUGCGACCUGCGGCGGCUGGAAAUGUAUUGUGCCCCUCUGAAGCCUGCCAAGAGCGCCUAA
modifications: mRNA, N1-methylpseudouridine modified; misc_feature 1..348 RNA sequence of Cpd.1A and Cpd.1B; misc_feature 1..348 m1f (uridine is 1-methylpseudouridine)
For B1, in the data set on IGF1 protein, the “duration of IGF1 protein production at relevant concentrations in TA muscle” value is given as “up to 72 hours”. In data set [3], the “duration of relevant Cpd.1A exposure in TA muscle” value was “up to 72 hours”. Further, in data set [3] (im, 3 ug), the “half-life of Cpd.1A in TA muscle” value was found to be 21 h.

B2: Cpd.1B: mRNA encoding human BDNF signal peptide, pro-IGF1 and mature IGF1 without E-peptide, 120 bp poly-A tail, from pMK vector (nucleic acid)
chain: AUGACCAUCCUGUUUCUGACAAUGGUCAUCAGCUACUUCGGCUGCAUGAAGGCCGUGAAGAUGCACACCAUGAGCAGCAGCCACCUGUUCUAUCUGGCCCUGUGCCUGCUGACCUUUACCAGCUCUGCUACCGCCGGACCUGAGACACUUUGUGGCGCUGAACUGGUGGACGCCCUGCAGUUUGUGUGUGGCGACAGAGGCUUCUACUUCAACAAGCCCACAGGCUACGGCAGCAGCUCUAGAAGGGCUCCUCAGACCGGAAUCGUGGACGAGUGCUGCUUCAGAAGCUGCGACCUGCGGCGGCUGGAAAUGUAUUGUGCCCCUCUGAAGCCUGCCAAGAGCGCCUAA
modifications: 1-methylpseudouridine; poly-A tail; misc_feature 1..348 RNA sequence of Cpd.1A and Cpd.1B; misc_feature 1..348 m1f (uridine is 1-methylpseudouridine)
notes: mRNA encoding human BDNF signal peptide, pro-IGF1 and mature IGF1 without E-peptide, 120 bp poly-A tail, from pMK vector
Take B2: in data set [1], the “area under curve (AUC) of urinary bladder leak point pressure” value is listed as “clear increase in AUC; also recorded: beneficial efficacy” and the “time course of leak point pressure (LPP)” value was “increase of LPP over time that returned to normal levels by Day 14”. Besides, the “leak point pressure (LPP) of urinary bladder” value in data set [1] (Day 4 after VD, vs. VD vehicle) was “significant increase in LPP; also recorded: significant increase of LPP; also recorded: increased LPP”. For the same molecule, the “leak point pressure (LPP) of urinary bladder” value in data set [1] (Day 9 after VD) is reported as “further increased; also recorded: did not reach significance; also recorded: still showed increased LPP”. Also, the “leak point pressure (LPP) of urinary bladder” value in data set [1] (Day 14 after VD) is given as “full recovery to healthy LPP levels”. In addition, in data set [2], the “endomysial tissue histology score” value was “completely prevented this impairment; also recorded: reverted”, the “inner longitudinal muscle layer (ILML) histology score” value is recorded as “preventing this disruption; also recorded: reverted” and the “outer circular muscle layer (OCML) histology score” value is recorded as “prevented this trend; also recorded: reverted”.

The record behind these values is patent US20240108693A1, “METHOD OF TREATING LOWER URINARY TRACT SYMPTOMS” (Versameb AG, priority 2021, published 2024).
